One data set has as its system LPS model of cachexia. Conditions: Sutton et al., Peptides 29 (1): 104-111 (2008); cited from earlier work.
The test system of data set [1] is urethane-anesthetized rats. Briefly: Cardiovascular effects (MAP, heart rate, ECG) in urethane-anesthetized rats. To be noted: 200 nmol.
Experimental: These studies were performed in urethane-anesthetized rats, since anesthesia is required for six-lead ECG monitoring. […] Initial selection of doses was guided by FDA exploratory IND studies with a recommendation for at least a 100-fold excess of the human dose.

Positions of bridges follow the written chain, without caps; N, C: chain ends. Non-standard residues stand in square brackets, D forms with d. d2Nal = N[C@H](Cc1ccc2ccccc2c1)C(=O)O; Nle = CCCC[C@H](N)C(=O)O

With “Ac-NLe-c[Asp-Pro-DNal(2′)-Arg-Trp-Lys]-Pro-Val-NH2 (Ac-[Nle]DP[d2Nal]RWKPV-NH2; lactam 2-7) [PG-932]”, the peripheral activity result in the data set with LPS model of cachexia is “active peripherally”. Further, in data set [1], the “Duration” value is 4 ± 3 min, the “Peak Heart Rate Response (BPM)” value is recorded as 13 ± 09 BPM and the “Peak MAP Response (Δ mm Hg)” value is on record as 5 ± 3 mm Hg.

These data come from patent US20260098072A1, “METHODS OF STIMULATING APPETITE AND/OR INCREASING BODY WEIGHT USING NON-NATURALLY OCCURRING MELANOCORTIN RECEPTOR ANTAGONIST ANALOGS” (Endevica Bio, Inc., priority 2022, published 2026).
